Source: patent US10876130B2, “HPPD variants and methods of use” (Bayer CropScience LP, priority 2014, dated 2020)
Where a chain is given by its changes, count along the chain named. Names may count otherwise. “And” between values parts separate entries of the source, which are not always exact repeats. Equal values may be shown once.

B1: PfHPPDEvo40: reference Pseudomonas fluorescens HPPD variant, SEQ ID NO:3 in Table 2 (protein)
chain: MADLYENPMGLMGFEFIEFASPTPGTLEPIFEIMGFTKVATHRSKNVHLYRQGEINLILNNEPNSIASYFAAEHGPSVCGMAFRVKDSQKAYNRALELGAQPIHIDTGPMELNLPAIKGIGGAPLYLIDRFGEGSSIYDIDFVYLEGVERNPVGAGLKVIDHLTHNVYRGRMVYWANFYEKLFNFREARYFDIKGEYTGLTSKAMSAPDGMIRIPLNEESSKGAGQIEEFLMQFNGEGIQHVAFLTDDLVKTWDALKKIGMRFMTAPPDTYYEMLEGRLPDHGEPVDQLQARGILLDGSSVEGDKRLLLQIFSETLMGPVFFEFIQRKGDDGFGPSNFKELFESIERDQVRRGVLTAD
modifications: variant HPPD
B2: PfHPPDEvo41: reference Pseudomonas fluorescens HPPD variant, SEQ ID NO:4 in Table 2 (protein)
chain: B1 chain with S336W, K339A, E340Q
modifications: variant HPPD
B3: Axmi309H-PWG: Axmi309H protein containing E335P, G336W, and A340G; SEQ ID NO:21 (protein)
chain: MADLYENPMGLMGFEFIEFASPTPGTLEPIFEIMGFTKVATHRSKNVHLYRQGAINLILNNEPHSVASYFAAEHGPSVCGMAFRVKDSQKAYNRALELGAQPIHIETGPMELNLPAIKGIGGAPLYLIDRFGEGSSIYDIDFVFLEGVDRNPVGAGLKIIDHLTHNVYRGRMAYWANFYEKLFNFREIRYFDIKGEYTGLTSKAMTAPDGMIRIPLNEESSKGAGQIEEFLMQFNGEGIQHVAFLTDDLVKTWDQLKKIGMRFMTAPPDTYYEMLEGRLPNHGEPVDQLQSRGILLDGASDKEDKRLLLQIFSETLMGPVFFEFIQRKGDDGFGPWNFKGLFESIERDQVRRGVLATE
modifications: variant HPPD

Legend:
HPPD enzymes [1] = conditions: for 125 μM HPP/500 μM HPP × 100 / 500 μM HPP, 5 μM TBT/500 μM HPP × 100: Table 3; for 125 μM HPP/500 μM HPP × 100: rate at limiting relative to high substrate; for 500 μM HPP, 5 μM TBT/500 μM HPP × 100 / 500 μM HPP + 5 μM TBT (as % of 500 μM HPP, dataset 1): rate with 5 μM tembotrione relative to rate without; for 500 μM HPP, dataset 1: enzymatic rate at high substrate (500 μM HPP), no inhibitor, measure of Vmax, E. coli extract; for 125 μM HPP (as % of 500 μM HPP, dataset 1): rate at limiting substrate relative to high substrate, measure of substrate affinity (Km); for 500 μM HPP + 5 μM TBT (as % of 500 μM HPP, dataset 1): resistance to tembotrione
Experimental: The in vitro kinetic assay couples the production of Homogentisic acid with the enzyme Homogentisate 1,2-dioxygenase (HGO). HGO converts homogentisic acid to maleoacetoacetate, which is easily quantified by UV absorption at 321 nm. The assay is carried out in real-time, and product can be quantified continuously in a 96-well spectrophotometer.
The kinetic assay was performed in two stages.
Experimentally, the first stage enzymatic assays were performed as follows. […] The cultures were incubated at 37 degrees C. When the OD reached 0.6-0.7, the temperature was decreased to 30 degrees C. and the cultures were incubated overnight. Cultures were sampled the next afternoon for the pyomelanin assay and the remaining culture was pelleted at 6500 rpm in an SA600 rotor, the supernatant was removed, and the pellets were frozen overnight at −20 degrees Celsius or until assay.
Just before assay, the pellets were resuspended in 1 ml of buffer (20 mM Hepes pH 7.0, 50 mM NaCl). Two ul of LYSONASE™ (Novagen) was added to each resuspended pellet, and then mixed. Two ml of buffer and 4 ul of LYSONASE™ were then added to the HGO pellet. The suspensions were incubated for 45 minutes at room temperature, and then frozen at −20 degrees for at least 1 hour. Then, the solutions were thawed at room temperature with occasional brief immersion in a 37 degree C. water bath and a little agitation. The cultures were spun down for 15 min at 14000 rpm in a Sorvall SA 600 rotor. The supernatants were carefully pipetted off the pellets (with care not to disturb the pellets), and transferred into 1 column of a 96 well plate, and 0.5 ml of buffer was added to each of the samples and pipetted up and down to mix. The HGO supernatant was collected and the reactions were performed in the following order. The HGO was added to the 500 μM HPP solution and the 500 μM solution+5 μM TBT. Immediately 100 ul of the 500 μM HPP solution was pipetted into even-numbered rows (5 reps) and 100 ul of the 500 μM HPP+5 μM TBT solution was pipetted into odd-numbered rows (5 reps). The reactions were divided between two 96-well plates to allow a sufficient number of samples to be analyzed (4 assays total in one 96-well plate, and 6 in another). Then, 100 ul of the enzyme solutions or buffer was pipetted first into a row of wells containing 500 μM HPP+5 μM TBT followed by gentle mixing by stirring with the pipette tips, and next into a row of wells containing 500 μM HPP followed by gentle mixing by stirring with the pipette tips. Product formation was measured by absorbance at 321 nm at 5 sec intervals. The reduced values (equivalent to the absorbance change over 50 sec, and calculated as OD/min) were analyzed. Five sets of data were collected. This was then repeated after addition of the HGO to the 125 μM HPP, using the same steps as above.
The enzymatic assay for each protein at 500 μM HPP is shown as milliOD units/minute, while the relative activity at 500 μM HPP+5 μM TBT, and also 125 μM HPP, are shown as a percentage of the activity at 500 μM HPP.

Soybean plants = assay: tolerance of soybean plants to mesotrione, spray test; assay type: in vivo
Experimental: Soybean plants expressing an HPPD inhibitor tolerant enzyme of the present invention, along with a gene conferring tolerance to glyphosate and a gene conferring tolerance to glufosinate, were tested for tolerance to mesotrione. A DeVries Tracker Sprayer was calibrated prior to each spraying. The chemical formulation used for mesotrione (MST) testing was Callisto® 4 SC formulation. Spray tests were conducted using 3× the field rate (equivalent to 9 fluid ounce per acre of the same herbicide formulation that containing 40% the active ingredient (AI), mesotrione), which equals 316 grams AI per hectare. Tolerance was evaluated one week after spraying. A tolerance rating of “0” was assigned to plants that their shoot apexes, newly emerged trifoliates and some axillary buds were completely bleached. A rating of “1” was assigned to plants having slight tolerance, i.e., the newest plant shoot tissues had some green and are not bleached completely. A rating of “2” was assigned to plants showing moderate tolerance, i.e., more than 50% of the leaf area of the top three trifoliates showing no chlorosis or bleaching damage. A rating of “3” was assigned to plants showing nearly perfect tolerance, i.e., less than 10% of the leaf area showing chlorosis or very slight bleaching.

HPPD enzymes [2] = assay: pyomelanin (brown color) colorimetric assay of HPPD enzymes overexpressed in E. coli, with tembotrione; assay type: cell-based; conditions: among Axmi309H mutants
Experimental: A specific, although non-limiting, type of assay that can be used to evaluate the HPPD sequences of the invention is a colorimetric assay. In this assay, a YT-broth-type culture medium with 1% agarose, 5 mM L-Tyrosine and 42 mM Succinate, which contains the selection agent for the vector pSE420 (Invitrogen, Karlsruhe, Germany) or a modified version of pSE420 (pSE420(RI)NX) is poured into deep well plates. E. coli culture in the exponentional growth phase which contains the vector pSE420-HPPDx (HPPDx means any gene coding for a putative HPPD enzyme/protein) is applied to each well.
Enzymes with improved tolerance to TBT were identified by this approach. The three-dimensional structure of Pseudomanas HPPD was studied to identify residues in the active site that were likely to be involved in substrate binding.
Briefly, overexpression of HPPD enzymes (in E. coli) on rich growth medium leads to the production of the compound pyomelanin. Pyomelanin is deep brown in color, therefore, inspection of HPPD enzymes grown on LB agar in a multi-well plate allows visual comparison of the enzymatic activity of HPPD enzymes. This experimental approach also allows varying concentrations of HPPD inhibitors (such as tembotrione) to be added to individual sample wells, which allows visual assessment of the tolerance of HPPD inhibitors by the randomized HPPD enzymes.

Molecule | 125 μM HPP/500 μM HPP × 100 (HPPD enzymes [1]) | 500 μM HPP, 5 μM TBT/500 μM HPP × 100 (HPPD enzymes [1]) | 500 μM HPP, dataset 1 (HPPD enzymes [1]) | 125 μM HPP (as % of 500 μM HPP, dataset 1) (HPPD enzymes [1]) | 500 μM HPP + 5 μM TBT (as % of 500 μM HPP, dataset 1) (HPPD enzymes [1]) | number of plants with tolerance rating 1 (Soybean plants; same spray test, 1 = slight tolerance, newest shoot tissues had some green) | number of plants with tolerance rating 2 (Soybean plants; same spray test, 2 = moderate tolerance, more than 50% of leaf area of top three trifoliates without chlorosis or bleaching) | number of plants with tolerance rating 3 (Soybean plants; same spray test, 3 = nearly perfect tolerance, less than 10% of leaf area showing chlorosis or very slight bleaching) | number of plants with tolerance rating 0 (Soybean plants; soybean expressing the clone, mesotrione (Callisto 4 SC) 316 grams AI per hectare (3× field rate), one week after spraying, 0 = completely bleached) | tolerance to tembotrione in the brown color assay (HPPD enzymes [2])
B1 | 57 | 44 | 16 milliOD units/minute and 19 milliOD units/minute | 61% and 65% | 42% and 65% | – | – | – | – | –
B2 | 50 | 39 | 64 milliOD units/minute and 73 milliOD units/minute | 34% and 54% | 28% and 52% | – | – | – | – | –
B3 | – | – | – | – | – | 18 | 23 | 12 | 5 | most tolerant to tembotrione
